According to patent publication US20240269235A1 (Gilead, published 2024):

Key:
[1] = molecular target: T1, IL-2Rα (recombinant IL-2 receptor α, R&D Systems Cat #: 223-2A/CF), biotinylated (human, UniProt P01589 22-213, limits assumed, biotinylated using sulfo-NHS-LC-LC-Biotin); assay: SPR (Biacore), C1 or CM5 chip, biotinylated receptor on neutravidin
T1 construct: Bought reagent; also used here as the IL-2Rα partner of the in-silico analysis of PDB 2B5I (another construct); also called IL-2RA; CD25
T1 sequence (looked up): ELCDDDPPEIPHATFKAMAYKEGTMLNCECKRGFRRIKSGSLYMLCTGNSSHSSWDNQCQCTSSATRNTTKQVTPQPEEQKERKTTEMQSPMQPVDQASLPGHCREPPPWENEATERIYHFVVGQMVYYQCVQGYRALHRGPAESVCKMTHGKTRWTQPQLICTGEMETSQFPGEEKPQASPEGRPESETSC
Source text: (§1) Data for binding of Fc-IL-2 variant fusion proteins to IL-2Rα, IL-2Rβ and IL-2Rβγ heterodimer were collected on a Biacore platform using either C1 or CM5 chips. Neutravidin was immobilized using standard amine coupling methods and used to capture biotinylated receptors. Commercially sourced IL-2Rα (R&D Systems Cat #: 223-2A/CF) and IL-2Rβ receptors (R&D Systems Cat #:224-2B-025/CF) were biotinylated using sulfo-NHS-LC-LC-Biotin, desalted, and then captured on the neutravidin surfaces. […] Distinct purification tags were appended to the C-terminus of each chain. A FLAG epitope tag ([…]; SEQ ID NO: 257) was added at the C-terminus of IL-2Rβ subunit, followed by C-terminal Hiss tag ([…]; SEQ ID NO: 258). An AviTag™ ([…]; SEQ ID NO: 259) motif on the IL-2Rγ subunit allowed for site-specific biotinylation of the heterodimer.
(§2) Fc IL 2 fusion protein variants, Fc protein, and Proleukin were injected at various concentrations over these surfaces. Kinetic data obtained from these injections was used to extract kₒₙ and koff to calculate KD (KD=koff/kₒₙ). Experiments were run at 25° C. in HBS-EP+ running buffer (10 mM HEPES, 150 mM NaCl, 3 mM EDTA, 0.05% Tween20, pH 7.4 with 0.1 mg/ml BSA). Data shown in Table 5 for Fc IL-2 fusion protein variants binding to the indicated IL-2R surfaces were derived from the global fitting of data obtained from 2-5 independent surfaces.

[2] = molecular target: T2, IL-2Rβ (recombinant IL-2 receptor β, R&D Systems Cat #:224-2B-025/CF), biotinylated (UniProt P14784 27-239, limits assumed, biotinylated using sulfo-NHS-LC-LC-Biotin); assay: as above
T2 construct: Bought reagent; also called IL-2RB; CD122
T2 sequence (looked up): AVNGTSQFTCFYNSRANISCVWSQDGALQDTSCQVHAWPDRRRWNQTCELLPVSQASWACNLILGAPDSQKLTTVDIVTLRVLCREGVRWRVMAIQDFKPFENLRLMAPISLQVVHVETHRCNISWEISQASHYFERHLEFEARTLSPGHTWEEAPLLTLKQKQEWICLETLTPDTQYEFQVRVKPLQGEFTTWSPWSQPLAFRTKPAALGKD
Source text: as §1, §2

[3] = molecular target: T3, trimeric murine IL-2 receptor (IL-2Rα, IL-2Rβ, and IL-2Rγ) on CTLL-2 cells (murine, UniProt P01590 22-268; P16297 27-539; P34902 23-369); assay: cell-based or functional assay
T3 sequence (looked up) 1: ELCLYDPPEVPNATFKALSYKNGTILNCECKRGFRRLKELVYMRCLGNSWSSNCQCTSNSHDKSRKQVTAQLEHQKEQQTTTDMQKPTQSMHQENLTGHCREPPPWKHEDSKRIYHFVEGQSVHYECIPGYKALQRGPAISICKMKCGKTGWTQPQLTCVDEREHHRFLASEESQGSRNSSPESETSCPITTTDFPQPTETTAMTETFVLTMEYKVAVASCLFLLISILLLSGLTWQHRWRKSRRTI
T3 sequence (looked up) 2: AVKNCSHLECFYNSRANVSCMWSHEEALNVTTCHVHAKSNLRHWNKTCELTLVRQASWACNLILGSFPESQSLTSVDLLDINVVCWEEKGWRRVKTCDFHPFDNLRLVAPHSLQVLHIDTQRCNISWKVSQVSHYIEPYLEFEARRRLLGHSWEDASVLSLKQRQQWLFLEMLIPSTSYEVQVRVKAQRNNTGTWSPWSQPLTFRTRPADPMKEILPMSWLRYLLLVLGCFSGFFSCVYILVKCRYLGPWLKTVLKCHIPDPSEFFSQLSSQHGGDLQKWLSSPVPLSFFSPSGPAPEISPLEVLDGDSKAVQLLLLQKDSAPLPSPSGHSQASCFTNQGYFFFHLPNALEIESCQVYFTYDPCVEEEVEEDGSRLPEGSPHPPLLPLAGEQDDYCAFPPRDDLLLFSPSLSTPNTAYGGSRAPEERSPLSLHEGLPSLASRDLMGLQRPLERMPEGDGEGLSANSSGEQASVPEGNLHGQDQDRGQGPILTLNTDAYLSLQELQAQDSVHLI
T3 sequence (looked up) 3: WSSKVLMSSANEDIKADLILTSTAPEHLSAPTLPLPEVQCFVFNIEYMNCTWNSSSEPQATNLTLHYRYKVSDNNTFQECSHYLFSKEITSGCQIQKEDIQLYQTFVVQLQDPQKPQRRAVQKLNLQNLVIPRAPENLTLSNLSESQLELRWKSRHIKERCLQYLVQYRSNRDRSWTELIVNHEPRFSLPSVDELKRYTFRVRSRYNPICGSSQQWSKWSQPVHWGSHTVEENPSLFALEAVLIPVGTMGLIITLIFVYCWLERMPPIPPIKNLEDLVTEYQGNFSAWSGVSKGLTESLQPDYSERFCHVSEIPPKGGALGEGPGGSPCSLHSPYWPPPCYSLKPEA

[4] = molecular target: T4, human IL-2Rα on Treg cells (CD3+, CD4+, CD25hi, FoxP3+) of human PBMC (human, UniProt P01589 22-272); assay: cell-based or functional assay
T4 sequence (looked up): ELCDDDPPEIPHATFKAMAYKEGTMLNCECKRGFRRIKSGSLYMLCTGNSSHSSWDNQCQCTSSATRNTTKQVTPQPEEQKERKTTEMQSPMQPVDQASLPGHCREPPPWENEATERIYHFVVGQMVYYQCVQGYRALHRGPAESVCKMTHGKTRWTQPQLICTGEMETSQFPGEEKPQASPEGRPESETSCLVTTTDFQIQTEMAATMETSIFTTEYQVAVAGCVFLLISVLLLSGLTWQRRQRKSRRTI

[5] = molecular target: T5, IL-2Rβγ heterodimer, custom biotinylated Fc fusion protein (human IL-2Rβ 27-240-Fc-FLAG / human IL-2Rγ … (human, site-specific biotinylation at the AviTag)); assay: SPR (Biacore), C1 or CM5 chip, biotinylated receptor on neutravidin
T5 construct: Extracellular regions fused to IgG1 knob-in-hole Fc subunits with tags; also called IL-2 receptor βγ heterodimer; Fc-IL-2Rβγ
T5 sequence (chain, as listed by the source limits assumed): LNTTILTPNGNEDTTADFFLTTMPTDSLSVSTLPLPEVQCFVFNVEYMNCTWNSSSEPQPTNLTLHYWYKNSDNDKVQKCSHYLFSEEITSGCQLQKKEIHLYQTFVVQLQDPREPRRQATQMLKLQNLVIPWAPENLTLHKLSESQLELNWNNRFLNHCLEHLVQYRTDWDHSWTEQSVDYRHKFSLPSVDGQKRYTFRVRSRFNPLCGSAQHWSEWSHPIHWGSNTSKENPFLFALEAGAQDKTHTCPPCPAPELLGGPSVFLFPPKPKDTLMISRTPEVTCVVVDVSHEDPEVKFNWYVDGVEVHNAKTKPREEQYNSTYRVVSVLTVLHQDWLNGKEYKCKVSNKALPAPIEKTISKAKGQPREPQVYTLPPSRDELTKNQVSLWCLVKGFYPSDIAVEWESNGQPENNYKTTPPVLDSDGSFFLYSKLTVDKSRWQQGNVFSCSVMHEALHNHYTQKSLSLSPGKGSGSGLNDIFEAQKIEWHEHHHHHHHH
Source text: as §1, §2

Binder	Kd [1] [nM]	Kd [2] [nM]	STAT5 activation of CTLL-2 cells, EC50 [3] [nM]	Treg EC50, STAT5 activation (PBMC STAT5 assay) [4] [nM]	binding result [5]	binding result [1]	binding result [2]
Fc-IL-2v heterodimer 88.46 (hIL-2v_Δ1-5_Y45A_C125S) (Fc fusion, hIgG4 knob-in-hole Fc heterodimer, one IL-2v on the knob chain) chain 1: ESKYGPPCPPCPAPEAAGGPSVFLFPPKPKDTLMISRTPEVTCVVVDVSQEDPEVQFNWYVDGVEVHNAKTKPREEQFNSTYRVVSVLTVLHQDWLNGKEYKCKVSNKGLPSSIEKTISKAKGQPREPQVYTLPPSQEEMTKNQVSLWCLVKGFYPSDIAVEWESNGQPENNYKTTPPVLDSDGSFFLYSRLTVDKSRWQEGNVFSCSVMHEALHNHYTQKSLSLSLGGGGGSGGGGSGGGGSGGGGSSTKKTQLQLEHLLLDLQMILNGINNYKNPKLTRMLTFKFAMPKKATELKHLQCLEEELKPLEEVLNLAQSKNFHLRPRDLISNINVIVLELKGSETTFMCEYADETATIVEFLNRWITFSQSIISTLT chain 2: ESKYGPPCPPCPAPEAAGGPSVFLFPPKPKDTLMISRTPEVTCVVVDVSQEDPEVQFNWYVDGVEVHNAKTKPREEQFNSTYRVVSVLTVLHQDWLNGKEYKCKVSNKGLPSSIEKTISKAKGQPREPQVYTLPPSQEEMTKNQVSLSCAVKGFYPSDIAVEWESNGQPENNYKTTPPVLDSDGSFFLVSRLTVDKSRWQEGNVFSCSVMHEALHNRFTQKSLSLSLGK	120	8000	0.1	< 0.001	–	–	–
Fc-IL-2v heterodimer 92.46 (hIL-2v_Δ1-5_L72G_C125S) (Fc fusion, hIgG4 knob-in-hole Fc heterodimer, one IL-2v on the knob chain) chain 1: ESKYGPPCPPCPAPEAAGGPSVFLFPPKPKDTLMISRTPEVTCVVVDVSQEDPEVQFNWYVDGVEVHNAKTKPREEQFNSTYRVVSVLTVLHQDWLNGKEYKCKVSNKGLPSSIEKTISKAKGQPREPQVYTLPPSQEEMTKNQVSLWCLVKGFYPSDIAVEWESNGQPENNYKTTPPVLDSDGSFFLYSRLTVDKSRWQEGNVFSCSVMHEALHNHYTQKSLSLSLGGGGGSGGGGSGGGGSGGGGSSTKKTQLQLEHLLLDLQMILNGINNYKNPKLTRMLTFKFYMPKKATELKHLQCLEEELKPLEEVLNGAQSKNFHLRPRDLISNINVIVLELKGSETTFMCEYADETATIVEFLNRWITFSQSIISTLT chain 2: ESKYGPPCPPCPAPEAAGGPSVFLFPPKPKDTLMISRTPEVTCVVVDVSQEDPEVQFNWYVDGVEVHNAKTKPREEQFNSTYRVVSVLTVLHQDWLNGKEYKCKVSNKGLPSSIEKTISKAKGQPREPQVYTLPPSQEEMTKNQVSLSCAVKGFYPSDIAVEWESNGQPENNYKTTPPVLDSDGSFFLVSRLTVDKSRWQEGNVFSCSVMHEALHNRFTQKSLSLSLGK	503	8000	0.7	< 0.001	–	–	–
Fc heterodimer without a fused IL-2 moiety (heterodimer name: 260:261) (other, negative control; also called control Fc protein with no IL-2 fusion) chain 1: ESKYGPPCPPCPAPEAAGGPSVFLFPPKPKDTLMISRTPEVTCVVVDVSQEDPEVQFNWYVDGVEVHNAKTKPREEQFNSTYRVVSVLTVLHQDWLNGKEYKCKVSNKGLPSSIEKTISKAKGQPREPQVYTLPPSQEEMTKNQVSLWCLVKGFYPSDIAVEWESNGQPENNYKTTPPVLDSDGSFFLYSRLTVDKSRWQEGNVFSCSVMHEALHNHYTQKSLSLSLGK chain 2: ESKYGPPCPPCPAPEAAGGPSVFLFPPKPKDTLMISRTPEVTCVVVDVSQEDPEVQFNWYVDGVEVHNAKTKPREEQFNSTYRVVSVLTVLHQDWLNGKEYKCKVSNKGLPSSIEKTISKAKGQPREPQVYTLPPSQEEMTKNQVSLSCAVKGFYPSDIAVEWESNGQPENNYKTTPPVLDSDGSFFLVSRLTVDKSRWQEGNVFSCSVMHEALHNRFTQKSLSLSLGK	–	–	–	–	no binding	no binding	no binding

Results, then the binder that gave them:

Kd [1] [nM]	Kd [2] [nM]	STAT5 activation of CTLL-2 cells, EC50 [3] [nM]	Treg EC50, STAT5 activation (PBMC STAT5 assay) [4] [nM]	binding result [5]	binding result [1]	binding result [2]	Binder
32	5900	0.001	< 0.001	–	–	–	Fc-IL-2v heterodimer 91.46 (hIL-2v_Δ1-5_E68A_C125S) (Fc fusion, hIgG4 knob-in-hole Fc heterodimer, one IL-2v on the knob chain) chain 1: ESKYGPPCPPCPAPEAAGGPSVFLFPPKPKDTLMISRTPEVTCVVVDVSQEDPEVQFNWYVDGVEVHNAKTKPREEQFNSTYRVVSVLTVLHQDWLNGKEYKCKVSNKGLPSSIEKTISKAKGQPREPQVYTLPPSQEEMTKNQVSLWCLVKGFYPSDIAVEWESNGQPENNYKTTPPVLDSDGSFFLYSRLTVDKSRWQEGNVFSCSVMHEALHNHYTQKSLSLSLGGGGGSGGGGSGGGGSGGGGSSTKKTQLQLEHLLLDLQMILNGINNYKNPKLTRMLTFKFYMPKKATELKHLQCLEEELKPLEAVLNLAQSKNFHLRPRDLISNINVIVLELKGSETTFMCEYADETATIVEFLNRWITFSQSIISTLT chain 2: ESKYGPPCPPCPAPEAAGGPSVFLFPPKPKDTLMISRTPEVTCVVVDVSQEDPEVQFNWYVDGVEVHNAKTKPREEQFNSTYRVVSVLTVLHQDWLNGKEYKCKVSNKGLPSSIEKTISKAKGQPREPQVYTLPPSQEEMTKNQVSLSCAVKGFYPSDIAVEWESNGQPENNYKTTPPVLDSDGSFFLVSRLTVDKSRWQEGNVFSCSVMHEALHNRFTQKSLSLSLGK
21	8200	0.002	< 0.001	–	–	–	Fc-IL-2v heterodimer 93.46 (hIL-2v_Δ1-5_Q74G_C125S) (Fc fusion, hIgG4 knob-in-hole Fc heterodimer, one IL-2v on the knob chain) chain 1: ESKYGPPCPPCPAPEAAGGPSVFLFPPKPKDTLMISRTPEVTCVVVDVSQEDPEVQFNWYVDGVEVHNAKTKPREEQFNSTYRVVSVLTVLHQDWLNGKEYKCKVSNKGLPSSIEKTISKAKGQPREPQVYTLPPSQEEMTKNQVSLWCLVKGFYPSDIAVEWESNGQPENNYKTTPPVLDSDGSFFLYSRLTVDKSRWQEGNVFSCSVMHEALHNHYTQKSLSLSLGGGGGSGGGGSGGGGSGGGGSSTKKTQLQLEHLLLDLQMILNGINNYKNPKLTRMLTFKFYMPKKATELKHLQCLEEELKPLEEVLNLAGSKNFHLRPRDLISNINVIVLELKGSETTFMCEYADETATIVEFLNRWITFSQSIISTLT chain 2: ESKYGPPCPPCPAPEAAGGPSVFLFPPKPKDTLMISRTPEVTCVVVDVSQEDPEVQFNWYVDGVEVHNAKTKPREEQFNSTYRVVSVLTVLHQDWLNGKEYKCKVSNKGLPSSIEKTISKAKGQPREPQVYTLPPSQEEMTKNQVSLSCAVKGFYPSDIAVEWESNGQPENNYKTTPPVLDSDGSFFLVSRLTVDKSRWQEGNVFSCSVMHEALHNRFTQKSLSLSLGK
